Target: T1, GST-NPM1 (unSUMOylated) (UniProt P06748 1-294)
T1 construct: Nucleophosmin (NPM1); also called GST-tagged NPM1; unSUMOylated GST-NPM1; source: E. coli, purified
Assay: pull-down; in vitro GST pull-down; His-hCINAP and GST-NPM1 purified from E. coli; GST protein as negative control
Conditions: both partners purified

T1 sequence (P06748 whole entry): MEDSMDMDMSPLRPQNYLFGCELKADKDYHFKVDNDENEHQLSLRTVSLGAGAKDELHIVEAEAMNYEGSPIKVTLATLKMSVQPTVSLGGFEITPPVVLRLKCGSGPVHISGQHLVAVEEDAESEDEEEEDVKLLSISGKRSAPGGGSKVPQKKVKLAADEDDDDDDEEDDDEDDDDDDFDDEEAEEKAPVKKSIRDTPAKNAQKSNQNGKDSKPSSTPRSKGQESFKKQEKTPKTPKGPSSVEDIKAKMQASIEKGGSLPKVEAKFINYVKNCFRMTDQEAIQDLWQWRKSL

B1: His-hCINAP (natural protein, human, UniProt Q9Y3D8 1-172, looked up)
chain: MLLPNILLTGTPGVGKTTLGKELASKSGLKYINVGDLAREEQLYDGYDEEYDCPILDEDRVVDELDNQMREGGVIVDYHGCDFFPERWFHIVFVLRTDTNVLYERLETRGYNEKKLTDNIQCEIFQVLYEEATASYKEEIVHQLPSNKPEELENNVDQILKWIEQWIKDHNS
notes: source: E. coli, purified
binding result: binds

Source: paper PMC6707248, “hCINAP regulates the DNA-damage response and mediates the resistance of acute myelocytic leukemia cells to therapy” (Nature Communications, 2019)
